{"source": "patent US20220396758", "key": {"[1]": {"system": "substrate protein S1 (single N-terminal Smt3 domain, 65-amino-acid charged flexible tail, C-terminal 11 amino acid ssrA tag)"}, "[2]": {"system": "substrate protein S2-148 (two Smt3 domains separated by an extended 148 amino acid linker, charged tail, C-terminal ssrA tag)"}, "[3]": {"system": "substrate protein S2-35 (two Smt3 domains separated by a 35 amino acid linker, charged tail, C-terminal ssrA tag)"}}, "data": [{"substance": "covalently-linked trimer of an N-terminal truncated ClpX variant (ClpX-ΔN3)", "values": [{"measurement": "ClpX-dependent ionic current ramp (ramping state iii), average current", "setting": "[1]", "result": "a progressive downward current ramp reaching an average of ~10 pA with a median duration of 4.3 seconds"}, {"measurement": "ClpX-dependent ionic current ramp (ramping state iii), median duration", "setting": "[1]", "result": "a progressive downward current ramp reaching an average of ~10 pA with a median duration of 4.3 seconds"}, {"measurement": "ClpX-dependent ionic current ramp (ramping state iii), number of events", "setting": "[1]", "result": "This current ramp was observed with protein S1 a total of 45 times over ~5.5 hours of experimentation when ClpX and ATP were present; in contrast, the ramp was never observed following state ii when ClpX and ATP were absent from the trans solution over ~2.3 hours of experimentation"}, {"measurement": "translocation events that included ramping state iii, number of events", "setting": "[2]", "result": "Translocation events that included ramping state iii were observed ... 66 times for protein S2-148 (4.3 hours of experimentation), when ClpX and ATP were present. In the absence of ClpX/ATP, these ramping states were never observed ... for S2-148 (1.2 hours of experimentation)"}, {"measurement": "second ramping state vi, ionic current", "setting": "[3]", "result": "This was followed by a ~8.5 pA state (FIG. 2C, vi) that closely resembled ramping state iii"}, {"measurement": "translocation events that included ramping state iii, number of events", "setting": "[3]", "result": "Translocation events that included ramping state iii were observed 62 times for protein S2-35 (7.3 hours of experimentation) ... when ClpX and ATP were present. In the absence of ClpX/ATP, these ramping states were never observed for S2-35 (1.7 hours of experimentation)"}]}]}
